The values that follow come from publication PMC7337490, “Molecular basis of MKLP2-dependent Aurora B transport from chromatin to the anaphase central spindle” (The Journal of Cell Biology, 2020).

To fix the notation:
B2: borealin^10-109 (domain or fragment, human, UniProt Q53HL2 10-109, looked up)
chain: VAKTNSLRRRKLASFLKDFDREVEIRIKQIESDRQNLLKEVDNLYNIEILRLPKALREMNWLDYFALGGNKQALEEAATADLDITEINKLTAEAIQTPLK
notes: borealin, human, residues 10-109; Subunit in the rows of two; source: E. coli BL21-CodonPlus (DE3)-RIL, co-expressed with survivin (pETDuet-1), purified within the complex

Data set [1] concerns the molecule itself. In words: SEC-MALS; samples at 1 mg/ml on Superose 6 10/300 GL, room temperature; 100 mM NaCl, 20 mM Tris-HCl pH 8.0, 1 mM DTT, 10% glycerol.
For data set [2], the target named is T1, CPI80^(Survivin E65A-H80A) (human, UniProt O15392 1-142; Q9NQS7 1-80; Q53HL2 10-109, E65A | H80A).
T1 construct: survivin, human, E65A H80A; INCENP, human, residues 1-80; borealin, human, residues 10-109 as in CPI80; not restated for this mutant; also called CPI80^E65A-H80A; survivin^E65A-H80A CPI80; source: E. coli BL21-CodonPlus (DE3)-RIL, purified (Glutathione Sepharose, SEC); not shown: His6, N-terminal, cleaved; GST, N-terminal, cleaved; copies: + +
T1 sequence (O15392 whole entry E65A/H80A, the tested form may be a part, one chain of several): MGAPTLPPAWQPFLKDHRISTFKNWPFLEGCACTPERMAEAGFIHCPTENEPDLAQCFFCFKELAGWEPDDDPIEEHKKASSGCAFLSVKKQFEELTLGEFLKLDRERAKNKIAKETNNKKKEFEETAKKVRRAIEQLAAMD
In words: SEC; CPC variants and MKLP2^557-668 mixed 1:1, 30 min on ice in 100 mM NaCl, 20 mM Tris-HCl pH 8.0, 1 mM DTT, 10% glycerol; analytical Superdex 200 increase 10/300 at 4°C; fractions on stained gels. To be noted: both partners purified.

In data set [3] the target is T2, survivin (full-length, recombinant, as subunit of the CPI complexes) (human, UniProt O15392 1-142).
T2 construct: survivin, human, full length; Never handled alone; stands for the subunit in the rows of two; source: E. coli BL21-CodonPlus (DE3)-RIL, co-expressed with borealin (pETDuet-1), purified within the complex
T2 sequence (O15392 whole entry, one chain of several): as the sequence (O15392 whole entry E65A/H80A, the tested form may be a part, one chain of several) above, with A65E, A80H counted along it
In words: SEC-MALS; samples at 1 mg/ml on Superose 6 10/300 GL, room temperature; 100 mM NaCl, 20 mM Tris-HCl pH 8.0, 1 mM DTT, 10% glycerol. To be noted: both partners purified.

The data set “borealin^10-109” has as its target B2. The description is as above. Particulars: both partners purified.
Data set [4] concerns the molecule itself. In words: SEC; 1 mg lysate of nocodazole-arrested HeLa cells on Superose 6 10/300 at 4°C; fractions Western blotted for MKLP2 and GFP; size from calibration standards.
Data set [5] has as its target CPI58 as used in ITC, SEC and ATPase assays (survivin, borealin, INCENP 1–58) (human, UniProt O15392 1-142; Q9NQS7 1-58; Q53HL2 1-280, Structural Zn2+ on survivin C57/C60/H77/C84. Survivin is taken from the authors' construct entity (entity number = survivin number + 2; leading GP tag scar left out). Borealin 10-109 is inferred from). In words: ITC; 400 µM peptide injected into 50 µM protein; 100 mM NaCl, 20 mM Tris-HCl pH 7.2, 1 mM DTT; 25°C; 1:1 binding model. To be noted: both partners purified.

The target of data set [6] is T3, MKLP2^557-668:CPI80 (survivin, INCENP^1-80, borealin^10-109) (human, UniProt O95235 557-668; O15392 1-142; Q9NQS7 1-80; Q53HL2 10-109).
T3 construct: survivin, human; INCENP, human, residues 1-80; borealin, human, residues 10-109; also called MKLP2:CPI80; not shown: His6, N-terminal, cleaved; GST, N-terminal, cleaved; copies: 2 + 2 + 2 + 2
Described as above. Particulars: both partners purified.

The target in data set [7] is T4, CPI80 (survivin, INCENP^1-80, borealin^10-109) (human, UniProt O15392 1-142; Q9NQS7 1-80; Q53HL2 10-109).
T4 construct: survivin, human; INCENP, human, residues 1-80; borealin, human, residues 10-109; 1:1:1 trimer by SEC-MALS; also called WT CPI80; source: E. coli BL21-CodonPlus (DE3)-RIL, purified (Glutathione Sepharose, SEC); not shown: His6, N-terminal, cleaved; GST, N-terminal, cleaved; copies: 1 + 1 + 1
T4 sequence (O15392 whole entry, chain 1 of 3, one chain of several, the tested form may be a part): as the sequence (O15392 whole entry E65A/H80A, the tested form may be a part, one chain of several) above, with A65E, A80H counted along it
The data set is described as above. Particulars: both partners purified.

Data set [8] concerns the target T5, CPI80^RRKKRR (CPI80 with the INCENP RRKKRR-motif replaced with alanine residues) (human, UniProt O15392 1-142; Q9NQS7 1-80; Q53HL2 10-109, RRKKRR to hexa-alanine).
T5 construct: survivin, human; INCENP, human, residues 1-80 with RRKKRR to hexa-alanine; borealin, human, residues 10-109 as in CPI80; not restated for this mutant; also called CPI80^RRKKRR mutant; source: E. coli BL21-CodonPlus (DE3)-RIL, purified (Glutathione Sepharose, SEC); not shown: His6, N-terminal, cleaved; GST, N-terminal, cleaved; copies: + +
Described as above. To be noted: both partners purified.

The target of data set [9] is CPI58 as used in ITC, SEC and ATPase assays (survivin, borealin, INCENP 1–58) (human, UniProt O15392 1-142; Q9NQS7 1-58; Q53HL2 1-280). The data set is described as above. Particulars: both partners purified.

Square brackets hold non-standard residues; d marks the D form. Ends that are not written are not given here. pT = C[C@@H](OP(=O)(O)O)[C@H](N)C(=O)O

T5 sequence (O15392 whole entry, change not shown, chain 1 of 3, one chain of several, the tested form may be a part): as the sequence (O15392 whole entry E65A/H80A, the tested form may be a part, one chain of several) above, with A65E, A80H counted along it
T5 sequence (Q9NQS7 other isoform, or with tags, fused parts or gaps RRKKRR to hexa-alanine | RRKKRR to hexa-alanine, chain 2 of 3, one chain of several): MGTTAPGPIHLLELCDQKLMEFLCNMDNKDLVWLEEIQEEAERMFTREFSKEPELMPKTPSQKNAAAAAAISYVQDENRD
CPI58 as used in ITC, SEC and ATPase assays (survivin, borealin, INCENP 1–58) (human, UniProt O15392 1-142; Q9NQS7 1-58; Q53HL2 1-280, Structural Zn2+ on survivin C57/C60/H77/C84. Survivin is taken from the authors' construct entity (entity number = survivin number + 2; leading GP tag scar left out). Borealin 10-109 is inferred from), sequence (A2SUH6 whole entry, chain 1 of 3, one chain of several): as the sequence (O15392 whole entry E65A/H80A, the tested form may be a part, one chain of several) above, with A65E, A80H counted along it

B1: MKLP2^557-668 (domain or fragment, human, UniProt O95235 557-668, looked up)
chain: MYGKEELLQVVEAMKTLLLKERQEKLQLEMHLRDEICNEMVEQMQQREQWCSEHLDTQKELLEEMYEEKLNILKESLTSFYQEEIQERDEKIEELEALLQEARQQSVAHQQS
notes: source: E. coli BL21-CodonPlus (DE3)-RIL, purified (Glutathione Sepharose, SEC); not shown: His6, N-terminal, cleaved; GST, N-terminal, cleaved
B1: in [1], the “stoichiometry N” value was 2. Also, the binding result in [2] was “binds”.
Consider B2, for which, in data set [3], the “stoichiometry N” value was found to be 1.

B3: INCENP^1-80 (recombinant) (domain or fragment, human, UniProt Q9NQS7 1-80, looked up)
chain: MGTTAPGPIHLLELCDQKLMEFLCNMDNKDLVWLEEIQEEAERMFTREFSKEPELMPKTPSQKNRRKKRRISYVQDENRD
notes: INCENP, human, residues 1-80; Subunit in the rows of two; also called I^80; source: E. coli BL21-CodonPlus (DE3)-RIL, purified within the complex; not shown: His6, N-terminal, cleaved; GST, N-terminal, cleaved
On to B3, for which the “stoichiometry N” value (in data set [3]; with borealin^10-109) was 1 each time.

B4: GFP-MKLP2 Δ636-652 (natural protein, human, UniProt O95235 1-890, looked up)
chain: MSQGILSPPAGLLSDDDVVVSPMFESTAADLGSVVRKNLLSDCSVVSTSLEDKQQVPSEDSMEKVKVYLRVRPLLPSELERQEDQGCVRIENVETLVLQAPKDSFALKSNERGIGQATHRFTFSQIFGPEVGQASFFNLTVKEMVKDVLKGQNWLIYTYGVTNSGKTHTIQGTIKDGGILPRSLALIFNSLQGQLHPTPDLKPLLSNEVIWLDSKQIRQEEMKKLSLLNGGLQEEELSTSLKRSVYIESRIGTSTSFDSGIAGLSSISQCTSSSQLDETSHRWAQPDTAPLPVPANIRFSIWISFFEIYNELLYDLLEPPSQQRKRQTLRLCEDQNGNPYVKDLNWIHVQDAEEAWKLLKVGRKNQSFASTHLNQNSSRSHSIFSIRILHLQGEGDIVPKISELSLCDLAGSERCKDQKSGERLKEAGNINTSLHTLGRCIAALRQNQQNRSKQNLVPFRDSKLTRVFQGFFTGRGRSCMIVNVNPCASTYDETLHVAKFSAIASQLVHAPPMQLGFPSLHSFIKEHSLQVSPSLEKGAKADTGLDDDIENEADISMYGKEELLQVVEAMKTLLLKERQEKLQLEMHLRDEICNEMVEQMQQREQWCSEHLDTQKELLEEMYEEKLNILKESLTSALLQEARQQSVAHQQSGSELALRRSQRLAASASTQQLQEVKAKLQQCKAELNSTTEELHKYQKMLEPPPSAKPFTIDVDKKLEEGQKNIRLLRTELQKLGESLQSAERACCHSTGAGKLRQALTTCDDILIKQDQTLAELQNNMVLVKLDLRKKAACIAEQYHTVLKLQGQVSAKKRLGTNQENQQPNQQPPGKKPFLRNLLPRTPTCQSSTDCSPYARILRSRRSPLLKSGPFGKKY
notes: source: HeLa, transfected, in lysate; not shown: EGFP, N-terminal, kept
B4: the “stoichiometry N” value in data set [4] came out at 2.

B5: H3 (1–12) peptide (peptide)
peptide: ARTKQTARKSTG
notes: histone H3 residues 1-12; also called H3T3 nonphosphopeptide; nonphosphorylated H3 peptide; source: synthetic peptide (Peptide Protein Research Ltd)
As to B5, the Kd in data set [5] is 5600 nM; in data set [6], 2800 ± 300 nM; in data set [7] it was 4600 nM; in data set [8], 3300 ± 500 nM.

B6: H3pT3 (1–12) phosphopeptide (peptide)
peptide: AR[pT]KQTARKSTG
notes: also called pH3T3; H3pT3 phosphopeptide; source: synthetic peptide (Peptide Protein Research Ltd)
Regarding B6, the Kd is 800 nM in [9], less than 1000 nM in [6], 1100 nM in [7] and 600 ± 300 nM in data set [8].
